The target in this data set is T1, TaNAC016-3A (Triticum aestivum, UniProt A0A3B6EBU1 1-353).
T1 sequence: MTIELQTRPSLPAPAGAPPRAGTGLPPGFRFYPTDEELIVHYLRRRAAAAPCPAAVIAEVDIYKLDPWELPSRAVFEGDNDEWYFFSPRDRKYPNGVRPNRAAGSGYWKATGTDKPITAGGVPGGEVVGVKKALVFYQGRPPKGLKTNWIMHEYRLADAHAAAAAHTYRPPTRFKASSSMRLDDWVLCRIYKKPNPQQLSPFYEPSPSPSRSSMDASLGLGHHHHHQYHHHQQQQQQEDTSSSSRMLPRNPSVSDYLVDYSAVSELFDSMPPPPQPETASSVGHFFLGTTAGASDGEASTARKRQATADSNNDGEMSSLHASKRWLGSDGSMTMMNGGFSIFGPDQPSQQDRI
In words: EMSA.

The results in this text go back to publication doi:10.1101/2023.04.22.537891.

B1: proTaPAO-4B EMSA probe (PAOsite2) (dsDNA)
DNA 1: AAGGATGGCCGGCACTTACGCAACCTGTCCTTAGACCCCCACAGAAC
DNA 2: GTTCTGTGGGGGTCTAAGGACAGGTTGCGTAAGTGCCGGCCATCCTT
Consider B1, for which the binding result is on record as “binds”.
